The record followed here is publication PMC12540671.

Assay [1] concerns the target PKM2 (pyruvate kinase M2) (mouse (endogenous in cerebellar tissue)) (UniProt P52480). Kind of assay: cross-linking; 5 mM disuccinimidyl suberate (DSS), 30 min, room temperature, quenched with Tris, then immunoblot for PKM2; mouse cerebellar tissue of Atm-WT and Atm-KO, also with TEPP-46. For orientation: Immunoblotting shows a protein as a band on a membrane.
For assay [2] the target is unchanged. The description is as above. This is another data set of the same source.
The target of assay [3] is ATM (ataxia-telangiectasia mutated) kinase (mouse (endogenous in cerebellar tissue)) (UniProt Q62388). Kind of assay: non-reducing SDS-PAGE and immunoblot; ex vivo mouse cerebellar tissue culture exposed to glargine (100 nM, 2 h); proteins denatured in 2% SDS without boiling, separated under nonreducing conditions at 4 °C; the NOX4 antagonist GLX7013114 or shRNA impeded the insulin-induced dimerization.

Where two headings read alike, the source gives them in different places.

PKM2 (pyruvate kinase M2), P52480 1-531 (enzyme; other documents disagree on this pair), sequence (P52480 whole entry): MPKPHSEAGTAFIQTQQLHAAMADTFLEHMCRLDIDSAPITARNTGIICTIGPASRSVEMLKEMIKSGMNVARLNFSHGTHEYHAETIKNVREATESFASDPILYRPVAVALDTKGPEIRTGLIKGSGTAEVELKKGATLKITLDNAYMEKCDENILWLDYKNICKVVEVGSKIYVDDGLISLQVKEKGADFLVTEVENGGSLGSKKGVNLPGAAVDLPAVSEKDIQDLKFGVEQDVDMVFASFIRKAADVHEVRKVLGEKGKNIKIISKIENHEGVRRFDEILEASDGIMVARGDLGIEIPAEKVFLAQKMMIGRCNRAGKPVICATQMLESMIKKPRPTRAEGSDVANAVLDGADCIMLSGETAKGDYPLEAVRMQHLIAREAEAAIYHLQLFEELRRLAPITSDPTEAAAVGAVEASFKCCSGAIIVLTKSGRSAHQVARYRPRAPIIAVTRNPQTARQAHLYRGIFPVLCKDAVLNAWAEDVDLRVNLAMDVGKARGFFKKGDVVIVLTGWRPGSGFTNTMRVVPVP

Consider “PKM2 (pyruvate kinase M2), P52480 1-531 (enzyme; other documents disagree on this pair)”, for which the stoichiometry N in assay [1] was 2; in assay [2], 4.

In the case of “ATM (ataxia-telangiectasia mutated) kinase, Q62388 1-3066”, in assay [3], the stoichiometry N is 2.

A word on the stoichiometry N: it is the number of molecules, sites or subunits per partner or assembly.
